Measurements from publication PMC3436176 (The Journal of Biological Chemistry, 2012).

Molecular target: T1, GPVI-Fc2 (GPVI dimer) (Homo sapiens, UniProt Q9HCN6)
T1 sequence (Q9HCN6 21-214 limits assumed): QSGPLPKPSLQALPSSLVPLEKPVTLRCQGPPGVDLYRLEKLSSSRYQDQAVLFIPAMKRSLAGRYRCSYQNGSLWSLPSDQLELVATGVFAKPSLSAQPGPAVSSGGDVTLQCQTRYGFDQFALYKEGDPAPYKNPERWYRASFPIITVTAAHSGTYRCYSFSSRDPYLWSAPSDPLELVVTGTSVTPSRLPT
Assay: ELISA: GPVI dimer binding to immobilized collagenous substrates

- Kd (monomer)/Kd (dimer) (binding to collagenous substrates): 236.7
- Hill coefficient for dimer binding (mean ± S.E., n = 4-12 as printed): 1.16 ± 0.11
B1: Collagen type III: Pepsin-treated bovine type III collagen from Koken (protein)
chain: EYEAYDVKSGVAGGGIAGYPGPAGPPGPPGPPGTSGHPGAPGAPGYQGPPGEPGQAGPAGPPGPPGAIGPSGKDGESGRPGRPGPRGFPGPPGMKGPAGMPGFPGMKGHRGFDGRNGEKGEPGAPGLKGENGVPGEDGAPGPMGPRGAPGERGRPGLPGAAGARGNDGARGSDGQPGPPGPPGTAGFPGSPGAKGEVGPAGSPGSSGAPGQRGEPGPQGHAGAPGPPGPPGSDGSPGGKGEMGPAGIPGAPGLIGARGPPGPPGTNGVPGQRGAAGEPGKNGAKGDPGPRGERGEAGSPGIAGPKGEDGKDGSPGEPGANGLPGAAGERGVPGFRGPAGANGLPGEKGPPGDRGGPGPAGPRGVAGEPGRNGLPGGPGLRGIPGSPGGPGSNGKPGPPGSQGETGRPGPPGSPGPRGQPGVMGFPGPKGNDGAPGKNGERGGPGGPGPQGPAGKNGETGPQGPPGPTGPSGDKGDTGPPGPQGLQGLPGTSGPPGENGKPGEPGPKGEAGAPGIPGGKGDSGAPGERGPPGAGGPPGPRGGAGPPGPEGGKGAAGPPGPPGSAGTPGLQGMPGERGGPGGPGPKGDKGEPGSSGVDGAPGKDGPRGPTGPIGPPGPAGQPGDKGESGAPGVPGIAGPRGGPGERGEQGPPGPAGFPGAPGQNGEPGAKGERGAPGEKGEGGPPGAAGPAGGSGPAGPPGPQGVKGERGSPGGPGAAGFPGGRGPPGPPGSNGNPGPPGSSGAPGKDGPPGPPGSNGAPGSPGISGPKGDSGPPGERGAPGPQGPPGAPGPLGIAGLTGARGLAGPPGMPGARGSPGPQGIKGENGKPGPSGQNGERGPPGPQGLPGLAGTAGEPGRDGNPGSDGLPGRDGAPGAKGDRGENGSPGAPGAPGHPGPPGPVGPAGKSGDRGETGPAGPSGAPGPAGSRGPPGPQGPRGDKGETGERGAMGIKGHRGFPGNPGAPGSPGPAGHQGAVGSPGPAGPRGPVGPSGPPGKDGASGHPGPIGPPGPRGNRGERGSEGSPGHPGQPGPPGPPGAPGPCCGAGGVAAI
